Assay results reported in US20160245821A1.

Legend:
[1] = target: WD Repeat Containing Protein 5 (WDR5) (UniProt P61964); assay: fluorescent polarization (FP) assay
[2] = target: WD Repeat Containing Protein 5 (WDR5) (UniProt P61964); assay: thermal shift
[3] = target: WD Repeat Containing Protein 5 (WDR5) (UniProt P61964); assay: ITC

“Peptide Substrate (WIN peptide, pentapeptide fragment of the WDR5 binding partner MLL1 protein)” gave a Kd [1] of 1.3 µM, a ΔTm*(Thermal shift) [2] of 2 ° C and a Kd [3] of 1.3 µM.
